The values below come from US20220112276A1 (Janssen / Centocor, published 2022).

To fix the notation:
T1: mouse pIgR extracellular domain (ECD) (mouse, UniProt O70570 19-645)
T1 construct: Bought from R&D Systems (Cat 2800-PG-050); also called mpIgR ECD
T1 sequence: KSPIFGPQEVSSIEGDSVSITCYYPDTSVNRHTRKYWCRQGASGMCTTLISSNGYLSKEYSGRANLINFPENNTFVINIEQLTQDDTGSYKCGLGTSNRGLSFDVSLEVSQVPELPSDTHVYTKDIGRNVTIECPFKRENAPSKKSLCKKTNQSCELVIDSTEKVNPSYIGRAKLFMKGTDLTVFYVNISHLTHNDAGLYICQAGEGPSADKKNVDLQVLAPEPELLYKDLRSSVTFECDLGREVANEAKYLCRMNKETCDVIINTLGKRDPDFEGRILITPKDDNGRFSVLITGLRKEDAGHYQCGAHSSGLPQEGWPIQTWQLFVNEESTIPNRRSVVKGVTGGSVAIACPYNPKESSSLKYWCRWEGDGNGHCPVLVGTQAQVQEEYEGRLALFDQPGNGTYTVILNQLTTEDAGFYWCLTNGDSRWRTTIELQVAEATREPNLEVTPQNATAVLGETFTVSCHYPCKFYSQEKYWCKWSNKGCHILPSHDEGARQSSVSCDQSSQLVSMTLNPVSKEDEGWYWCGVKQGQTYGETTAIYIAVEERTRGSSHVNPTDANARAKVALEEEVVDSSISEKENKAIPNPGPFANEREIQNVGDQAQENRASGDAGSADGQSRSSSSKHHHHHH

T2: rat pIgR extracellular domain (rat, UniProt P15083 19-643)
T2 construct: extracellular domain
T2 sequence (looked up): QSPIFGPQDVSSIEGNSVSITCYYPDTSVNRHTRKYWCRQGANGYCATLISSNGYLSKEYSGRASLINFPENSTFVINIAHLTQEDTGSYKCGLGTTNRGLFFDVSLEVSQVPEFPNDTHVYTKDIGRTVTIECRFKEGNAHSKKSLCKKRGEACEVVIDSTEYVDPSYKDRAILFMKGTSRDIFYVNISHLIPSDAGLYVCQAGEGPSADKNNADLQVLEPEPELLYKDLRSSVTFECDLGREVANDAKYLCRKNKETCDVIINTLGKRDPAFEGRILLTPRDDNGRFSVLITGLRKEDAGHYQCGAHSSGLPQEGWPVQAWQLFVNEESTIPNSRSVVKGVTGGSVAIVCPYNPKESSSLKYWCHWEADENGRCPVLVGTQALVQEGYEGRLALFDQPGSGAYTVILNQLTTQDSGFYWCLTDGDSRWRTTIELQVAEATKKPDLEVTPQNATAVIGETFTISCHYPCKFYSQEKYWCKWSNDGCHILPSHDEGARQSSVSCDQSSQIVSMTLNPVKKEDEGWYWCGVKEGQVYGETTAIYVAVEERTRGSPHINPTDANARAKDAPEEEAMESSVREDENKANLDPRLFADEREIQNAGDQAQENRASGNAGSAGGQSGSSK

B1: 01E11R2 VHH Mono-Fc (Fc fusion)
chain: QVQLVESGGGLVQTGGSLRLSCAASGLTFSSYTMGWFRQAPGKEREFVAAISWGGASTWYADSVKGRFTISRDNAKTMVYLQMNGLKPEDTAVYYCAKGRNNGYATAVRAYDYWGQGTLVTVSSSPAPELLGGPSVFLFPPKPKDTLMISRTPEVTCVVVDVSHEDPEVKFNWYVDGVEVHNAKTKPREEQYNSTYRVVSVLTVLHQDWLNGKEYKCKVSNKALPAPIEKTISKAKGQPREPQVYTKPPSREEMTKNQVSLSCLVKGFYPSDIAVEWESNGQPENNYKTTVPVLDSDGSFRLASYLTVDKSRWQQGNVFSCSVMHEALHNHYTQKSLSLSPGK
B2: 02H11R3 VHH Mono-Fc (Fc fusion)
chain: EVQLVESGGGSVQAGGSLRLSCAASGRTFSNYAMGWFRQAPGKEREFVAGISRSGGSTYSADSVKGRFTISRDNAKNTVYLQMNSLKPEDTAVYYCAADGLDYALGFRGDYWGQGTQVTVSSSPAPELLGGPSVFLFPPKPKDTLMISRTPEVTCVVVDVSHEDPEVKFNWYVDGVEVHNAKTKPREEQYNSTYRVVSVLTVLHQDWLNGKEYKCKVSNKALPAPIEKTISKAKGQPREPQVYTKPPSREEMTKNQVSLSCLVKGFYPSDIAVEWESNGQPENNYKTTVPVLDSDGSFRLASYLTVDKSRWQQGNVFSCSVMHEALHNHYTQKSLSLSPGK
B3: 01G03R3L VHH Mono-Fc (Fc fusion)
chain: B2 chain with E1Q, Q117L
B4: 01C03R3L VHH Mono-Fc (Fc fusion)
chain: QVQLVESGGGLVQPGGRLRLSCAASGSIFSIRDMGWYRQAPGKQRELVAIFARGGSTHYADSVKGRFTISRDNAKNTVYLQMNSLEPEDTAAYYCNAEVATMIQPGFRDYWGQGTLVTVSSSPAPELLGGPSVFLFPPKPKDTLMISRTPEVTCVVVDVSHEDPEVKFNWYVDGVEVHNAKTKPREEQYNSTYRVVSVLTVLHQDWLNGKEYKCKVSNKALPAPIEKTISKAKGQPREPQVYTKPPSREEMTKNQVSLSCLVKGFYPSDIAVEWESNGQPENNYKTTVPVLDSDGSFRLASYLTVDKSRWQQGNVFSCSVMHEALHNHYTQKSLSLSPGK
B5: 02D06R3 VHH Mono-Fc (Fc fusion)
chain: B4 chain with G35A, L47W, F51A, S84T, L116Q
B6: 02B03R3 VHH Mono-Fc (Fc fusion)
chain: B4 chain with Q1E, P14S, R17Q, F29A, G35A, S56T, I103F, Q113R

Positions count from the first letter of the chain named.

One test addresses T1, mouse pIgR extracellular domain (ECD). In words: SPR, VHH captured by anti-Fc, ECD analyte. Summed up: (§1)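 Anti-human Fc surface captured VHH at 0.5 ug/ml (~200-300 RU); running buffer HBSP with 100 ug/ml BSA, 30 μL/min. Single-cycle kinetics with ECD injected low to high from 30 nM in 3-fold dilutions, dissociation 30 min. Double-referenced data globally fit to 1:1 Langmuir model for kon, koff, KD.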
On the technique in general: Surface plasmon resonance follows binding to a sensor surface in real time, without labels.
What is called Kd is the constant that tells how readily two partners part at equilibrium. The molecule B1 came in with an equilibrium dissociation constant (Kd) of 20.6 nM.

On to B2, for which binding was characterised by a dissociation constant (Kd) of 0.71 nM.

B3 registered a dissociation constant Kd of 0.796 nM.

As to B4, the Kd stood at 33.1 nM.

B5 registered a Kd of 1.34 nM.

In turn, B6 yielded a dissociation constant Kd of 2.76 nM.

A further test addresses T2, rat pIgR extracellular domain. In words: SPR, VHH captured by anti-Fc, ECD analyte. Summed up:
as §1
Consider B1, for which the Kd was determined as 22.5 nM.

In turn, B2 had a Kd of 1.74 nM.

As for B3, binding was put at a Kd of 1.61 nM.

The molecule B4 displayed a Kd of 16 nM.

As to B5, the equilibrium dissociation constant (Kd) is 0.448 nM.

The molecule B6 returned a Kd of 1.32 nM.

Another test deals with T3, cynomolgus monkey pIgR extracellular domain (cynomolgus monkey, UniProt A0A2K5WMU9 19-638).
T3 construct: extracellular domain
T3 sequence (A0A2K5WMU9 entry or part of it): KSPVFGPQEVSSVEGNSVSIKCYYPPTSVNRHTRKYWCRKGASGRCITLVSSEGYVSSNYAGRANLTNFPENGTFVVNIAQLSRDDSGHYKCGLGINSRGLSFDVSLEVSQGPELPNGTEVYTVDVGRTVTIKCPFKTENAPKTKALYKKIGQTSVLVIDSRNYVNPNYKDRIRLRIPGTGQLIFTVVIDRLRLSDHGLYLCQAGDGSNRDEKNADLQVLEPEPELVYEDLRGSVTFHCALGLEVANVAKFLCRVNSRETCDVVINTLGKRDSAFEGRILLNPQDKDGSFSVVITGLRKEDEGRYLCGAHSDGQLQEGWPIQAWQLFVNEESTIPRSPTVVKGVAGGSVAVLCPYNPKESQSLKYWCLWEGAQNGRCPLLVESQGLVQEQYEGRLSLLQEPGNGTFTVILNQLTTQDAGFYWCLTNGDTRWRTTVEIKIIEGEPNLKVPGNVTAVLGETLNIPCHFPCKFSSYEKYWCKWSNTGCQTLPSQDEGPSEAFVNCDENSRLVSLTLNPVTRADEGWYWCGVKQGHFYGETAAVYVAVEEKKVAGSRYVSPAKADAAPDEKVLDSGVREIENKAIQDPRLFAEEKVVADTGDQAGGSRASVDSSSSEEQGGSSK
In words: SPR, VHH captured by anti-Fc, ECD analyte. Summed up: as §1
B1: the Kd came to 86.1 nM.

The target of a further test is T4, human pIgR extracellular domain (ECD) (human, UniProt P01833 19-638).
T4 construct: Bought from R&D Systems (Cat 2717-PG-050); also called hpIgR ECD
T4 sequence (P01833 other isoform, or with tags, fused parts or gaps): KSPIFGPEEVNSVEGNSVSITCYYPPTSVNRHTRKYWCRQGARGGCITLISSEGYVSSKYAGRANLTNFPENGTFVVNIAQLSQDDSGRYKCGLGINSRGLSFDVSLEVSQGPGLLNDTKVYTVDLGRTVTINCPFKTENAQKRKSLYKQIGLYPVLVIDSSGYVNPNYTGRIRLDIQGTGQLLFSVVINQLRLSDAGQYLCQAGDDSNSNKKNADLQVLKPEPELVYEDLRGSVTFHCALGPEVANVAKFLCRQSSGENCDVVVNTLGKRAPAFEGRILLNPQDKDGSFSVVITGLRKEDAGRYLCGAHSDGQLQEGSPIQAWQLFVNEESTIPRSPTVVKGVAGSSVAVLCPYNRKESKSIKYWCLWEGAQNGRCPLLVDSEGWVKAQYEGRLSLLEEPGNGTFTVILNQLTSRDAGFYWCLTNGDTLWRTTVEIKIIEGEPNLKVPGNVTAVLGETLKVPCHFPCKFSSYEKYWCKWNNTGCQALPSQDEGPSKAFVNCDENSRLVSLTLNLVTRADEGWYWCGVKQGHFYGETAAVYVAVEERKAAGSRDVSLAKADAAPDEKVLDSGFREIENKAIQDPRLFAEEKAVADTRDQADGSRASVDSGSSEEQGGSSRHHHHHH
In words: SPR.
Consider B1, for which the binding result is recorded as “no binding (tested: 30 nM)”.

B2: the binding result was “no binding (tested: 30 nM)”.

On to B3, for which the binding result is given as “no binding (tested: 30 nM)”.

With B4, the binding result is “no binding (tested: 30 nM)”.

For B5, the binding result is on record as “no binding (tested: 30 nM)”.

On to B6, for which the binding result was “no binding (tested: 30 nM)”.
